Two molecules from patent US20260152567A1 (CSPC MEGALITH BIOPHARMACEUTICAL, published 2026) can be followed below.

The target in assay [1] is T1, recombinant human CD73 protein (human, UniProt P21589 27-547).
T1 construct: Bought soluble protein; The background says that CD73 forms a homodimer; also called soluble CD73; free CD73 protein
T1 sequence (looked up): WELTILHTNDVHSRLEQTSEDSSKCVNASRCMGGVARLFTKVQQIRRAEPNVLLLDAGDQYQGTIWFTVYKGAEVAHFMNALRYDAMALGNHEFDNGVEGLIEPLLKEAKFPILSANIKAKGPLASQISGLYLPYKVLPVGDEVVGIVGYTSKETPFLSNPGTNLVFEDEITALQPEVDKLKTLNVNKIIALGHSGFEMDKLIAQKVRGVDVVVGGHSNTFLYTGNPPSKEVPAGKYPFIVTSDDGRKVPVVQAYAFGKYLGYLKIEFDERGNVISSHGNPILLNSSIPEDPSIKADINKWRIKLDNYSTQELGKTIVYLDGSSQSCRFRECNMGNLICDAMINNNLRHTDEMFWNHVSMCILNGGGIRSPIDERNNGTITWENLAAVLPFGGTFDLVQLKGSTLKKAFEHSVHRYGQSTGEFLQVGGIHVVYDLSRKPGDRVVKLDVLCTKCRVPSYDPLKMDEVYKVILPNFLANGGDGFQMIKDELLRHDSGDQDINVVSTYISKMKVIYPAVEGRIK
Nature of the assay: BLI (Fortebio), human CD73 on HIS1K biosensors, antibody as analyte. As for the experimental part:
The humanized antibody VH and VL were separately constructed into eukaryotic expression vectors containing the hIgG1-kappa constant region with L234A, L235A, P329A and P331S mutations (abbreviated as hIgG1 in the present application). The affinity of all humanized antibodies was assayed in this example. Human CD73 protein was immobilized onto HIS1K biosensors to achieve a binding response threshold of 0.3 nm. After a 120-second baseline step, the sensors were separately immersed in anti-CD73 antibody analytes diluted in a gradient with a 0.02% PBST buffer (each antibody was diluted in a 2-fold gradient with an initial concentration of 25 nM, resulting in 7 concentration gradients). The times for the ligand-analyte binding and dissociation were 120 s and 300 s, respectively. The data of the antigen-antibody affinity were calculated by regression according to the binding curves using an analysis software.
(Biolayer interferometry detects binding as a change in optical thickness at a sensor tip.)

Assay [2] addresses T2, human CD73 on the cell surface (MDA-MB-231 and SKOV3 tumor cells) (human, UniProt P21589 27-549).
T2 construct: whole, on cells; also called cell surface CD73; CD73 on the surface of human tumor cells
T2 sequence (looked up): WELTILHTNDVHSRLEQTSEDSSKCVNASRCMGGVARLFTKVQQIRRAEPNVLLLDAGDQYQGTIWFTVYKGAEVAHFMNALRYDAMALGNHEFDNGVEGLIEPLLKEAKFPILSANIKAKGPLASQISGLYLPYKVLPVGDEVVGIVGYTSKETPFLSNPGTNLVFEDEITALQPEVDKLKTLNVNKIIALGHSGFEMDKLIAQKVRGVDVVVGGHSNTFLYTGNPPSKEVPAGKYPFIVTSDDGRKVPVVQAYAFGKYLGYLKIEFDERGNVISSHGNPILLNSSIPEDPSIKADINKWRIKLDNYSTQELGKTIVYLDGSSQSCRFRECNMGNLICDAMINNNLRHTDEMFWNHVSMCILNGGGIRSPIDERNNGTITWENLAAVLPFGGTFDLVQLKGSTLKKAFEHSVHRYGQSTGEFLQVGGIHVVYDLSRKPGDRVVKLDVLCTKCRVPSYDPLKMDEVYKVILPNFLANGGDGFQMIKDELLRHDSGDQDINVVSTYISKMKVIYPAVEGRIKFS
Description: flow cytometry on SK-OV-3 cells. As for the experimental part:
(§1) In this example, the exemplary antibodies of the present application were compared with anti-CD73 antibodies described in other patent applications. Antibodies MEDI9447 and Hu101-28 (with CDR sequences from PCT patent applications WO 2016/075099 and WO 2018/137598, respectively) were cloned into eukaryotic expression vectors containing the hIgG1-kappa constant region. The binding ability of the humanized antibodies Hab7C3C2.5 and Hab1F2F9.15 to cell surface CD73 was assessed using tumor cell lines MDA-MB-231 and SKOV3 which endogenously express human CD73 on the cell surface. The cells were seeded in a 96-well plate at a density of 2×10⁶ cells/mL, with 100 μL per well. 4-fold gradient dilutions (0-100 nM) of the antibodies were added, and the mixture was incubated at 4° C. for 1 h. A goat anti-human secondary antibody was added, and the mixture was incubated at 4° C. in the dark for 50 min for labeling. The fluorescence intensity of the cells was then measured by a flow cytometer.
In general terms: In flow cytometry, cells or beads pass a laser one at a time.

Assay [3] deals with T2, human CD73 on the cell surface …. Description: cell-based or functional assay.
The target is the same in assay [4]. Description: flow cytometry on MDA-MB-231 cells. As for the experimental part:
as §1

Assay [5] concerns the target T1, recombinant human CD73 protein. Description: cell-based or functional assay.
The target of assay [6] is T3, N-terminal portion of the CD73 protein (Homo sapiens (Human), UniProt P21589 27-317, limits assumed).
T3 construct: also called CD73 N-terminal protein; N-terminus of the CD73 protein
T3 sequence: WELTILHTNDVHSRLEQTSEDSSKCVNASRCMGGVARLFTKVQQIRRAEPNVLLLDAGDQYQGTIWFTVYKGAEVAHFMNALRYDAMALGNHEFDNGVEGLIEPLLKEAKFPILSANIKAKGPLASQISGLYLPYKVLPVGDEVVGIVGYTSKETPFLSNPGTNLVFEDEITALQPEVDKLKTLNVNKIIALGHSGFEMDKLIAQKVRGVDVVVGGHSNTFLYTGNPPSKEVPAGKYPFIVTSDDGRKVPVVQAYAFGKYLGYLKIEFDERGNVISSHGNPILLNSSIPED
Description: ELISA, plate coated with CD73 N-terminal protein at 1 µg/mL. As for the experimental part:
In this example, the C-terminal portion (SEQ ID NO. 41) and the N-terminal portion (SEQ ID NO. 42) of the CD73 protein were separately constructed, and the epitopes recognized by the antibodies were detected by ELISA method. Elisa plates were respectively coated with the CD73 N-terminal and C-terminal proteins at a concentration of 1 μg/mL. The test antibodies were diluted in a gradient.

B1: Hab7C3C2.5 (antibody, human IgG1, kappa, L234A L235A, V domains shown)
VH: QVQLVQSGAEVKKPGASVKVSCKASGYTFTSYDINWVRQATGQGLEWIGWIYPRDGFTKYNEKFKGRVTLTVNTSISTAYMELSSLRSEDTAVYYCARKEGYRGDWYFDVWGQGTTVTVSS
VL: DIQMTQSPSSLSASVGDRVTITCRASGNVHNYLAWYQQKPGKAPKLLLYNAKTLASGVPSRFSGSGSGTDYTLTISSLQPEDFATYYCQHFWSTPWTFGGGTELEIKR
notes: Humanized 7C3C2; also called Hab7C3C.5
As a reminder, the Kd is the concentration at which binding is half-saturated. By koff is commonly meant the rate constant with which the complex falls apart. As usually defined, the kon is a measure of how fast the partners come together. Usually EC50 stands for the midpoint of the concentration-response curve. A higher EC50 goes with lower potency in that assay. B1: in assay [1], the dissociation constant Kd worked out at 0.765 nM, the koff amounted to 0.00272 s⁻¹ and the kon is 3.56e+06 M⁻¹ s⁻¹. Moreover, the 50% effective concentration (EC50) in assay [2] was 0.07 nM. Further, the “Cellular enzymatic activity inhibition IC50” value in assay [3] stood at 0.027 nM. For the same molecule, the half-maximal effective concentration (EC50) in assay [4] was found to be 0.41 nM. In addition, the “Protein enzymatic activity inhibition IC50” value in assay [5] amounted to 0.018 nM. For the same molecule, the binding result in assay [6] is on record as “no binding”.

B2: Hab1F2F9.15 (antibody, human IgG1, kappa, L234A L235A, V domains shown)
VH: QVQLVQSGAEVKKPGASVKVSCKASGYTFTSYWMHWVRQAPGQRLEWMGNINPSNGGTKYSQKFQGRVTITVDTSASTAYMELSSLRSEDTAVYYCARRDYGSPSYWGQGTTVTVSS
VL: DIQMTQSPSSLSASVGDRVTITCKASQDINSYLTWFQQKPGKAPKSLIYRTNILLDGVPSRFSGSGSGTDYTLTISSLQPEDFATYYCLQYHEFPVTFGGGTKLEIKR
notes: Humanized 1F2F9; also called Huab1F2F9.15; HuablF2F9.15
Take B2: in assay [1], the Kd is 0.779 nM, the dissociation rate constant (koff) came out at 0.0016 s⁻¹ and the kon was found to be 2.06e+06 M⁻¹ s⁻¹. Moreover, in assay [2], the response was half-maximal at 0.19 nM (EC50). Moreover, in assay [3], the “Cellular enzymatic activity inhibition IC50” value is 0.069 nM. This molecule also gave an EC50 in assay [4] of 0.48 nM. In addition, the “Protein enzymatic activity inhibition IC50” value in assay [5] is 0.011 nM. The binding result in assay [6] is “no binding”.
